B1: THAP1; numbered along this chain (parent)
chain: MVQSCSAYGCKNRYDKDKPVSFHKFPLTRPSLCKEWEAAVRRKNFKPTKYSSICSEHFTPDCFKRECNNKLLKENAVPTIFLCTEPHDKKEDLLEPQEQLPPPPLPPPVSQVDAAIGLLMPPLQTPVNLSVFCDHNYTVEDTMHQRKRIHQLEQQVEKLRKKLKTAQQRCRRQERQLEKLKEVVHFQKEKDDVSERGYVILPNDYFEIVEVPA

Variants of: B1
Test: THAP1 transcriptional activity (GFP+/GFP- enrichment relative to wild-type constructs) (ratio to WT); higher = more THAP1 activity (PSMB5 reporter activation)
Details: with PSMB5 promoter-GFP reporter
Outline: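 A lentiviral site-saturation library covering residues 2–213 of human THAP1, with each position changed to all 20 amino acids, was transduced in duplicate at MOI ~0.3 into THAP1-knockout HEK-293T cells with mClover3 knocked in at endogenous PSMB5. Five days later, BFP+ cells were sorted into GFP-dim and GFP-bright bins and variants were counted by Illumina sequencing of genomic DNA amplicons. Activity is the bright/dim read fold change averaged over replicates and divided by the mean of wild-type synonymous constructs.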

| Variant | THAP1 transcriptional activity |
| --- | --- |
| MVQSCSAYGCKNRYDKDKPVSFHKFPLTRPSLCKEWEAAVRRKNFKPTKYSSICSEHFTPDCFKRECNNKLLKENAVPTIFLCTEPHDKKEDLLEPQEQLPPPPLPPPVSQVDAAIGLLMPPLQTPVNLSVFCDHNYTVEDTMHKRKRIHQLEQQVEKLRKKLKTAQQRCRRQERQLEKLKEVVHFQKEKDDVSERGYVILPNDYFEIVEVPA [Q145K] | 0.783 |
| MVQSCSAYGCKNRYDKDKPVSFHKFPLTRPSLCKEWEAAVRRKNFKPTKYSSICSEHFTPDCFKRECNNKLLKENAVPTIFLCTEPHDKKEDLLEPQEQLPPPPLPPPVSQVDAAIGLLMPPLQTPVNLSVFCDHNYTVEDTMHYRKRIHQLEQQVEKLRKKLKTAQQRCRRQERQLEKLKEVVHFQKEKDDVSERGYVILPNDYFEIVEVPA [Q145Y] | 0.618 |
| MVQSCSAYGCKNRYDKDKPVSFHKFPLTRPSLCKEWEAAVRRKNFKPTKYSSICSEHFTPDCFKRECNNKLLKENAVPTIFLCTEPHDKKEDLLEPQEQLPPPPLPPPVSQVDAAIGLLMPPLQTPVNLSVFCDHNYTVEDTMHNRKRIHQLEQQVEKLRKKLKTAQQRCRRQERQLEKLKEVVHFQKEKDDVSERGYVILPNDYFEIVEVPA [Q145N] | 0.719 |
| MVQSCSAYGCKNRYDKDKPVSFHKFPLTRPSLCKEWEAAVRRKNFKPTKYSSICSEHFTPDCFKRECNNKLLKENAVPTIFLCTEPHDKKEDLLEPQEQLPPPPLPPPVSQVDAAIGLLMPPLQTPVNLSVFCDHNYTVEDTMHMRKRIHQLEQQVEKLRKKLKTAQQRCRRQERQLEKLKEVVHFQKEKDDVSERGYVILPNDYFEIVEVPA [Q145M] | 0.767 |
| MVQSCSAYGCKNRYDKDKPVSFHKFPLTRPSLCKEWEAAVRRKNFKPTKYSSICSEHFTPDCFKRECNNKLLKENAVPTIFLCTEPHDKKEDLLEPQEQLPPPPLPPPVSQVDAAIGLLMPPLQTPVNLSVFCDHNYTVEDTMHWRKRIHQLEQQVEKLRKKLKTAQQRCRRQERQLEKLKEVVHFQKEKDDVSERGYVILPNDYFEIVEVPA [Q145W] | 0.755 |
| MVQSCSAYGCKNRYDKDKPVSFHKFPLTRPSLCKEWEAAVRRKNFKPTKYSSICSEHFTPDCFKRECNNKLLKENAVPTIFLCTEPHDKKEDLLEPQEQLPPPPLPPPVSQVDAAIGLLMPPLQTPVNLSVFCDHNYTVEDTMHRRKRIHQLEQQVEKLRKKLKTAQQRCRRQERQLEKLKEVVHFQKEKDDVSERGYVILPNDYFEIVEVPA [Q145R] | 0.646 |
| MVQSCSAYGCKNRYDKDKPVSFHKFPLTRPSLCKEWEAAVRRKNFKPTKYSSICSEHFTPDCFKRECNNKLLKENAVPTIFLCTEPHDKKEDLLEPQEQLPPPPLPPPVSQVDAAIGLLMPPLQTPVNLSVFCDHNYTVEDTMHPRKRIHQLEQQVEKLRKKLKTAQQRCRRQERQLEKLKEVVHFQKEKDDVSERGYVILPNDYFEIVEVPA [Q145P] | 0.652 |
| MVQSCSAYGCKNRYDKDKPVSFHKFPLTRPSLCKEWEAAVRRKNFKPTKYSSICSEHFTPDCFKRECNNKLLKENAVPTIFLCTEPHDKKEDLLEPQEQLPPPPLPPPVSQVDAAIGLLMPPLQTPVNLSVFCDHNYTVEDTMHVRKRIHQLEQQVEKLRKKLKTAQQRCRRQERQLEKLKEVVHFQKEKDDVSERGYVILPNDYFEIVEVPA [Q145V] | 0.59 |
| MVQSCSAYGCKNRYDKDKPVSFHKFPLTRPSLCKEWEAAVRRKNFKPTKYSSICSEHFTPDCFKRECNNKLLKENAVPTIFLCTEPHDKKEDLLEPQEQLPPPPLPPPVSQVDAAIGLLMPPLQTPVNLSVFCDHNYTVEDTMHLRKRIHQLEQQVEKLRKKLKTAQQRCRRQERQLEKLKEVVHFQKEKDDVSERGYVILPNDYFEIVEVPA [Q145L] | 0.544 |
| MVQSCSAYGCKNRYDKDKPVSFHKFPLTRPSLCKEWEAAVRRKNFKPTKYSSICSEHFTPDCFKRECNNKLLKENAVPTIFLCTEPHDKKEDLLEPQEQLPPPPLPPPVSQVDAAIGLLMPPLQTPVNLSVFCDHNYTVEDTMHTRKRIHQLEQQVEKLRKKLKTAQQRCRRQERQLEKLKEVVHFQKEKDDVSERGYVILPNDYFEIVEVPA [Q145T] | 1.05 |
| MVQSCSAYGCKNRYDKDKPVSFHKFPLTRPSLCKEWEAAVRRKNFKPTKYSSICSEHFTPDCFKRECNNKLLKENAVPTIFLCTEPHDKKEDLLEPQEQLPPPPLPPPVSQVDAAIGLLMPPLQTPVNLSVFCDHNYTVEDTMHSRKRIHQLEQQVEKLRKKLKTAQQRCRRQERQLEKLKEVVHFQKEKDDVSERGYVILPNDYFEIVEVPA [Q145S] | 0.592 |
| MVQSCSAYGCKNRYDKDKPVSFHKFPLTRPSLCKEWEAAVRRKNFKPTKYSSICSEHFTPDCFKRECNNKLLKENAVPTIFLCTEPHDKKEDLLEPQEQLPPPPLPPPVSQVDAAIGLLMPPLQTPVNLSVFCDHNYTVEDTMHIRKRIHQLEQQVEKLRKKLKTAQQRCRRQERQLEKLKEVVHFQKEKDDVSERGYVILPNDYFEIVEVPA [Q145I] | 0.448 |
| MVQSCSAYGCKNRYDKDKPVSFHKFPLTRPSLCKEWEAAVRRKNFKPTKYSSICSEHFTPDCFKRECNNKLLKENAVPTIFLCTEPHDKKEDLLEPQEQLPPPPLPPPVSQVDAAIGLLMPPLQTPVNLSVFCDHNYTVEDTMHQRERIHQLEQQVEKLRKKLKTAQQRCRRQERQLEKLKEVVHFQKEKDDVSERGYVILPNDYFEIVEVPA [K147E] | 0.626 |
| MVQSCSAYGCKNRYDKDKPVSFHKFPLTRPSLCKEWEAAVRRKNFKPTKYSSICSEHFTPDCFKRECNNKLLKENAVPTIFLCTEPHDKKEDLLEPQEQLPPPPLPPPVSQVDAAIGLLMPPLQTPVNLSVFCDHNYTVEDTMHQRGRIHQLEQQVEKLRKKLKTAQQRCRRQERQLEKLKEVVHFQKEKDDVSERGYVILPNDYFEIVEVPA [K147G] | 0.51 |
| MVQSCSAYGCKNRYDKDKPVSFHKFPLTRPSLCKEWEAAVRRKNFKPTKYSSICSEHFTPDCFKRECNNKLLKENAVPTIFLCTEPHDKKEDLLEPQEQLPPPPLPPPVSQVDAAIGLLMPPLQTPVNLSVFCDHNYTVEDTMHQRDRIHQLEQQVEKLRKKLKTAQQRCRRQERQLEKLKEVVHFQKEKDDVSERGYVILPNDYFEIVEVPA [K147D] | 0.605 |
| MVQSCSAYGCKNRYDKDKPVSFHKFPLTRPSLCKEWEAAVRRKNFKPTKYSSICSEHFTPDCFKRECNNKLLKENAVPTIFLCTEPHDKKEDLLEPQEQLPPPPLPPPVSQVDAAIGLLMPPLQTPVNLSVFCDHNYTVEDTMHQRARIHQLEQQVEKLRKKLKTAQQRCRRQERQLEKLKEVVHFQKEKDDVSERGYVILPNDYFEIVEVPA [K147A] | 0.537 |
| MVQSCSAYGCKNRYDKDKPVSFHKFPLTRPSLCKEWEAAVRRKNFKPTKYSSICSEHFTPDCFKRECNNKLLKENAVPTIFLCTEPHDKKEDLLEPQEQLPPPPLPPPVSQVDAAIGLLMPPLQTPVNLSVFCDHNYTVEDTMHQRFRIHQLEQQVEKLRKKLKTAQQRCRRQERQLEKLKEVVHFQKEKDDVSERGYVILPNDYFEIVEVPA [K147F] | 0.361 |
| MVQSCSAYGCKNRYDKDKPVSFHKFPLTRPSLCKEWEAAVRRKNFKPTKYSSICSEHFTPDCFKRECNNKLLKENAVPTIFLCTEPHDKKEDLLEPQEQLPPPPLPPPVSQVDAAIGLLMPPLQTPVNLSVFCDHNYTVEDTMHQSKRIHQLEQQVEKLRKKLKTAQQRCRRQERQLEKLKEVVHFQKEKDDVSERGYVILPNDYFEIVEVPA [R146S] | 1 |
| MVQSCSAYGCKNRYDKDKPVSFHKFPLTRPSLCKEWEAAVRRKNFKPTKYSSICSEHFTPDCFKRECNNKLLKENAVPTIFLCTEPHDKKEDLLEPQEQLPPPPLPPPVSQVDAAIGLLMPPLQTPVNLSVFCDHNYTVEDTMHQDKRIHQLEQQVEKLRKKLKTAQQRCRRQERQLEKLKEVVHFQKEKDDVSERGYVILPNDYFEIVEVPA [R146D] | 0.548 |
| MVQSCSAYGCKNRYDKDKPVSFHKFPLTRPSLCKEWEAAVRRKNFKPTKYSSICSEHFTPDCFKRECNNKLLKENAVPTIFLCTEPHDKKEDLLEPQEQLPPPPLPPPVSQVDAAIGLLMPPLQTPVNLSVFCDHNYTVEDTMHQAKRIHQLEQQVEKLRKKLKTAQQRCRRQERQLEKLKEVVHFQKEKDDVSERGYVILPNDYFEIVEVPA [R146A] | 0.79 |
| MVQSCSAYGCKNRYDKDKPVSFHKFPLTRPSLCKEWEAAVRRKNFKPTKYSSICSEHFTPDCFKRECNNKLLKENAVPTIFLCTEPHDKKEDLLEPQEQLPPPPLPPPVSQVDAAIGLLMPPLQTPVNLSVFCDHNYTVEDTMHQPKRIHQLEQQVEKLRKKLKTAQQRCRRQERQLEKLKEVVHFQKEKDDVSERGYVILPNDYFEIVEVPA [R146P] | 0.535 |
| MVQSCSAYGCKNRYDKDKPVSFHKFPLTRPSLCKEWEAAVRRKNFKPTKYSSICSEHFTPDCFKRECNNKLLKENAVPTIFLCTEPHDKKEDLLEPQEQLPPPPLPPPVSQVDAAIGLLMPPLQTPVNLSVFCDHNYTVEDTMHQQKRIHQLEQQVEKLRKKLKTAQQRCRRQERQLEKLKEVVHFQKEKDDVSERGYVILPNDYFEIVEVPA [R146Q] | 0.849 |
| MVQSCSAYGCKNRYDKDKPVSFHKFPLTRPSLCKEWEAAVRRKNFKPTKYSSICSEHFTPDCFKRECNNKLLKENAVPTIFLCTEPHDKKEDLLEPQEQLPPPPLPPPVSQVDAAIGLLMPPLQTPVNLSVFCDHNYTVEDTMHQNKRIHQLEQQVEKLRKKLKTAQQRCRRQERQLEKLKEVVHFQKEKDDVSERGYVILPNDYFEIVEVPA [R146N] | 0.584 |
| MVQSCSAYGCKNRYDKDKPVSFHKFPLTRPSLCKEWEAAVRRKNFKPTKYSSICSEHFTPDCFKRECNNKLLKENAVPTIFLCTEPHDKKEDLLEPQEQLPPPPLPPPVSQVDAAIGLLMPPLQTPVNLSVFCDHNYTVEDTMHQFKRIHQLEQQVEKLRKKLKTAQQRCRRQERQLEKLKEVVHFQKEKDDVSERGYVILPNDYFEIVEVPA [R146F] | 0.489 |
| MVQSCSAYGCKNRYDKDKPVSFHKFPLTRPSLCKEWEAAVRRKNFKPTKYSSICSEHFTPDCFKRECNNKLLKENAVPTIFLCTEPHDKKEDLLEPQEQLPPPPLPPPVSQVDAAIGLLMPPLQTPVNLSVFCDHNYTVEDTMHQIKRIHQLEQQVEKLRKKLKTAQQRCRRQERQLEKLKEVVHFQKEKDDVSERGYVILPNDYFEIVEVPA [R146I] | 0.358 |
| MVQSCSAYGCKNRYDKDKPVSFHKFPLTRPSLCKEWEAAVRRKNFKPTKYSSICSEHFTPDCFKRECNNKLLKENAVPTIFLCTEPHDKKEDLLEPQEQLPPPPLPPPVSQVDAAIGLLMPPLQTPVNLSVFCDHNYTVEDTMHQWKRIHQLEQQVEKLRKKLKTAQQRCRRQERQLEKLKEVVHFQKEKDDVSERGYVILPNDYFEIVEVPA [R146W] | 0.39 |
| MVQSCSAYGCKNRYDKDKPVSFHKFPLTRPSLCKEWEAAVRRKNFKPTKYSSICSEHFTPDCFKRECNNKLLKENAVPTIFLCTEPHDKKEDLLEPQEQLPPPPLPPPVSQVDAAIGLLMPPLQTPVNLSVFCDHNYTVEDTMHQYKRIHQLEQQVEKLRKKLKTAQQRCRRQERQLEKLKEVVHFQKEKDDVSERGYVILPNDYFEIVEVPA [R146Y] | 0.539 |
| MVQSCSAYGCKNRYDKDKPVSFHKFPLTRPSLCKEWEAAVRRKNFKPTKYSSICSEHFTPDCFKRECNNKLLKENAVPTIFLCTEPHDKKEDLLEPQEQLPPPPLPPPVSQVDAAIGLLMPPLQTPVNLSVFCDHNYTVEDTMHQMKRIHQLEQQVEKLRKKLKTAQQRCRRQERQLEKLKEVVHFQKEKDDVSERGYVILPNDYFEIVEVPA [R146M] | 0.595 |

Reference: the supplement of paper PMC11811203
